Our source for the Kd and EC50 (read off the curve) values is patent US20100105151A1.

The target in experiment [1] is T1, trimeric, post-fusion form of sE, the soluble fragment of dengue virus type 2 (S1 strain) envelope glycoprotein E (dengue virus type 2 S1 strain), P12823. Briefly: fluorescence depolarization, labeled peptide titrated with trimeric sE.
Experiment [2] addresses T1, trimeric, post-fusion form of sE, the …. In words: fluorescence depolarization; 33nM labelled peptide titrated with dengue sE trimer (x axis µM E).
The target is the same in experiment [3].
The target is the same in experiment [4]. In words: fluorescence depolarization.

Where two headings read alike, the source gives them in different places.

B1: fluorescently labeled version of the peptide corresponding to residues 396-429 (stem region) of deng (peptide)
peptide: SSIGQMFETTMRGAKRMAILGDTAWDFGSLGGVF
modifications: not checked
As to B1, in experiment [1], the Kd stood at 6 µM. Besides, the EC50 (read off the curve) in experiment [2] is 5 µM.

B2: stem peptide including residues 413-447 of dengue envelope protein E (peptide)
peptide: AILGDTAWDFGSLGGVFTSIGKALHQVFGAIYGAA
modifications: not checked
Turning to B2, in experiment [3], the 50% effective concentration (EC50 (read off the curve)) was 3 µM. Also, the Kd in experiment [4] was found to be 4 µM.

What is called Kd is the constant that tells how readily two partners part at equilibrium. Low readings indicate higher affinity, high ones lower affinity. As usually defined, the EC50 (read off the curve) is the concentration giving half of the maximal effect.
